Data from EP4534554A1 (Corregene Biotechnology Co., Ltd., dated 2025).
Substitutions are numbered along the chain they refer to. Where two headings read alike, the source gives them in different places.

How the values were obtained:
[1] = target: T1, MAGE-A1 peptide on HLA-A*02:01 (human); assay: JKR9 reporter + peptide-loaded T2, 16 h; full-length, on cells
T1 peptide: KVLEYVIKV

[2] = target: MAGE-A1 target antigen peptide … presented by HLA-A*02:01 on cells (human); assay: cell-based or functional assay; set-up: EC50 Enhancement Factor: unit not given beside the values
[3] = target: T1, MAGE-A1 peptide on HLA-A*02:01; assay: MAGE-A1 Dextramer gradient on transduced JKR9; unit inferred; full-length, on cells
[4] = target: MAGE-A1 Dextramer (human); assay: KD-SPR estimated from Dextramer staining MFI by the linear formula of Figure 6; not measured by SPR
[5] = target: T1, MAGE-A1 peptide on HLA-A*02:01; assay: JKR9 reporter + peptide-loaded T2, 16 h; full-length, on cells
[6] = target: T1, MAGE-A1 peptide on HLA-A*02:01; assay: KD-SPR estimated from Dextramer MFI by the formula calibrated on gp100 TCRs, not measured; unit inferred; full-length, on cells
[7] = target: MAGE-A1 target antigen peptide … presented by HLA-A*02:01 on cells (human); assay: cell-based or functional assay
[8] = target: MAGE-A1 Dextramer (human); assay: MAGE-A1 Dextramer gradient staining (MFI) of cells expressing the TCR, flow cytometry

B1: ht27M1557 (TCR, V domains shown)
Valpha: GEDVEQSLFLSVREGDSSVINCTYTDSSSTYLYWYKQEPGAGLQLLTYIFSNMDMKQDQRLTVLLNKKDKHLSLRIADTQTGDSAIYFCAGSGGGTDKLIFGTGTRLQVFP
Vbeta: GAVVSQHPSWVICKSGTSVKIECRSLDFQATTMFWYRQFPKQSLMLMATSNEGSKATYEQGVEKDKFLINHASLTLSTLTVTSAHPEDSSFYICSAREPGQEHLIQYFGPGTRLTVT
EC50 of peptide [1]: 14.9 nM
EC50 Enhancement Factor [2]: 1120
EC50 Value (M), JKR9 reporter activation by peptide-loaded T2 cells [2]: 1.49e-08 M

B2: ht27M1387 (TCR, V domains shown)
Valpha: B1 Valpha
Vbeta: B1 Vbeta with Q29P, A30I, T31E, T32R, E102G, H103P, L104Y, I105E
EC50 of peptide [1]: 128 nM
EC50 Enhancement Factor [2]: 131
EC50 Value (M), JKR9 reporter activation by peptide-loaded T2 cells [2]: 1.28e-07 M

B3: ht27M1398 (TCR, V domains shown)
Valpha: B1 Valpha
Vbeta: B1 Vbeta with S50T, E52L, G53P, E102G, H103P, L104Y, I105E
EC50 of peptide [1]: 52.8 nM
EC50 Enhancement Factor [2]: 316
EC50 Value (M), JKR9 reporter activation by peptide-loaded T2 cells [2]: 5.28e-08 M

B4: ht27M1401 (TCR, V domains shown)
Valpha: B1 Valpha
Vbeta: B1 Vbeta with S50T, N51Q, E52P, G53L, E102G, H103P, L104Y, I105E
EC50 of peptide [1]: 90.5 nM
EC50 Enhancement Factor [2]: 184
EC50 Value (M), JKR9 reporter activation by peptide-loaded T2 cells [2]: 9.05e-08 M

B5: ht27M1374 (TCR, V domains shown)
Valpha: B1 Valpha with S28T, S29D, T30I, Y31L
Vbeta: B1 Vbeta with E102G, H103P, L104Y, I105E
EC50 of peptide [1]: 109 nM
EC50 Enhancement Factor [2]: 153
EC50 Value (M), JKR9 reporter activation by peptide-loaded T2 cells [2]: 1.09e-07 M

B6: ht27M1381 (TCR, V domains shown)
Valpha: B1 Valpha with T25V, S27P, S28Y
Vbeta: B1 Vbeta with E102G, H103P, L104Y, I105E
EC50 of peptide [1]: 128 nM
EC50 Enhancement Factor [2]: 131
EC50 Value (M), JKR9 reporter activation by peptide-loaded T2 cells [2]: 1.28e-07 M

B7: ht27M1360 (TCR, V domains shown)
Valpha: B1 Valpha with S51G, N52F, M53D, D54T
Vbeta: B1 Vbeta with E102G, H103P, L104Y, I105E
EC50 of peptide [1]: 60.4 nM
EC50 Enhancement Factor [2]: 277
EC50 Value (M), JKR9 reporter activation by peptide-loaded T2 cells [2]: 6.04e-08 M

B8: ht27M1003 (TCR, V domains shown)
Valpha: B1 Valpha
Vbeta: B1 Vbeta with Q101S, E102G, H103P, L104Y, I105E
EC50 of peptide [1]: 1170 nM
EC50 Enhancement Factor [2]: 14
EC50 Value (M), JKR9 reporter activation by peptide-loaded T2 cells [2]: 1.17e-06 M

B9: ht27M1362 (TCR, V domains shown)
Valpha: B1 Valpha with S51I, N52F, M53Q, D54Y
Vbeta: B1 Vbeta with E102G, H103P, L104Y, I105E
EC50 of peptide [1]: 39.9 nM
EC50 Enhancement Factor [2]: 419
EC50 Value (M), JKR9 reporter activation by peptide-loaded T2 cells [2]: 3.99e-08 M

B10: ht27M1363 (TCR, V domains shown)
Valpha: B1 Valpha with S51N, N52T, M53Q
Vbeta: B1 Vbeta with E102G, H103P, L104Y, I105E
EC50 of peptide [1]: 64 nM
EC50 Enhancement Factor [2]: 261
EC50 Value (M), JKR9 reporter activation by peptide-loaded T2 cells [2]: 6.4e-08 M

B11: ht27M1365 (TCR, V domains shown)
Valpha: B1 Valpha with N52F, M53T, D54Y
Vbeta: B1 Vbeta with E102G, H103P, L104Y, I105E
EC50 of peptide [1]: 101 nM
EC50 Enhancement Factor [2]: 165
EC50 Value (M), JKR9 reporter activation by peptide-loaded T2 cells [2]: 1.01e-07 M

B12: ht27M1418 (TCR, V domains shown)
Valpha: B1 Valpha with I49G, F50T, S51W, N52L
Vbeta: B1 Vbeta with E102G, H103P, L104Y, I105E
EC50 of peptide [1]: 10.1 nM
EC50 Enhancement Factor [2]: 1650
EC50 Value (M), JKR9 reporter activation by peptide-loaded T2 cells [2]: 1.01e-08 M

B13: ht27M1436 (TCR, V domains shown)
Valpha: B1 Valpha with I49T, S51W, N52F
Vbeta: B1 Vbeta with E102G, H103P, L104Y, I105E
EC50 of peptide [1]: 202 nM
EC50 Enhancement Factor [2]: 82.8
EC50 Value (M), JKR9 reporter activation by peptide-loaded T2 cells [2]: 2.02e-07 M

B14: A1A2-M01-612 (TCR, V domains shown)
Valpha: B1 Valpha with T25V, S27P, S28Y, N52F
Vbeta: B1 Vbeta with Q29E, G100W, Q101D, E102P, H103W, L104Y, I105E
EC50 of Dextramer staining [3]: 0.0475 nM
Kd [4]: 0.00294 nM
EC50 of peptide [5]: 23 nM
Kd [6]: ~0.00294 nM
EC50 Value (M), JKR9 reporter activation by peptide-loaded T2 cells [7]: 2.3e-08 M
EC50 [8]: 0.0475 nM

B15: A1A2-M01-613 (TCR, V domains shown)
Valpha: B1 Valpha with S29L, N52F
Vbeta: B1 Vbeta with S50T, N51D, E52Y, E102G, H103P, L104W, I105E
EC50 of Dextramer staining [3]: 0.0961 nM
Kd [4]: 0.0338 nM
EC50 of peptide [5]: 26.2 nM
Kd [6]: ~0.0338 nM
EC50 Value (M), JKR9 reporter activation by peptide-loaded T2 cells [7]: 2.62e-08 M
EC50 [8]: 0.0961 nM

B16: A1A2-M01-614 (TCR, V domains shown)
Valpha: B1 Valpha with T25S, S27M, S28L, S51I, N52F, M53Q, D54A
Vbeta: B1 Vbeta with Q29E, S50T, N51D, E52Y, E102G, H103P, L104W, I105E
EC50 of Dextramer staining [3]: 0.163 nM
Kd [4]: 0.208 nM
EC50 of peptide [5]: 29.4 nM
Kd [6]: ~0.208 nM
EC50 Value (M), JKR9 reporter activation by peptide-loaded T2 cells [7]: 2.94e-08 M
EC50 [8]: 0.163 nM

B17: A1A2-M01-616 (TCR, V domains shown)
Valpha: B1 Valpha with S29Q, S51A, N52F, D54Q
Vbeta: B1 Vbeta with Q29E, S50T, N51D, E52Y, E102G, H103P, L104W, I105E
EC50 of Dextramer staining [3]: 0.0808 nM
Kd [4]: 0.0186 nM
EC50 of peptide [5]: 32.3 nM
Kd [6]: ~0.0186 nM
EC50 Value (M), JKR9 reporter activation by peptide-loaded T2 cells [7]: 3.23e-08 M
EC50 [8]: 0.0808 nM

B18: A1A2-M01-617 (TCR, V domains shown)
Valpha: B1 Valpha with T25P, S27M, S28F, S51A, N52F, D54Q
Vbeta: B1 Vbeta with Q29E, S54D, K55Q, E102G, H103P, L104W, I105E
EC50 of Dextramer staining [3]: 0.103 nM
Kd [4]: 0.0432 nM
EC50 of peptide [5]: 26.1 nM
Kd [6]: ~0.0432 nM
EC50 Value (M), JKR9 reporter activation by peptide-loaded T2 cells [7]: 2.61e-08 M
EC50 [8]: 0.103 nM

B19: A1A2-M01-619 (TCR, V domains shown)
Valpha: B1 Valpha with S29M, N52F
Vbeta: B1 Vbeta with Q29E, S50T, N51D, E52Y, E102G, H103P, L104Y, I105E
EC50 of peptide [5]: 27.4 nM
EC50 Value (M), JKR9 reporter activation by peptide-loaded T2 cells [7]: 2.74e-08 M

B20: A1A2-M01-620 (TCR, V domains shown)
Valpha: B1 Valpha with S29Q
Vbeta: B1 Vbeta with Q29E, S50T, N51D, E52Y, E102A, H103W, L104S, I105D
EC50 of Dextramer staining [3]: 0.212 nM
Kd [4]: 0.524 nM
EC50 of peptide [5]: 25 nM
Kd [6]: ~0.524 nM
EC50 Value (M), JKR9 reporter activation by peptide-loaded T2 cells [7]: 2.5e-08 M
EC50 [8]: 0.212 nM

B21: A1A2-M01-621 (TCR, V domains shown)
Valpha: B1 Valpha with S28E, S29F, S51A, N52F, M53E, D54S
Vbeta: B1 Vbeta with Q29E, S50T, N51D, E52Y, E102G, H103P, L104W, I105E
EC50 of Dextramer staining [3]: 0.121 nM
Kd [4]: 0.0747 nM
EC50 of peptide [5]: 35.7 nM
Kd [6]: ~0.0747 nM
EC50 Value (M), JKR9 reporter activation by peptide-loaded T2 cells [7]: 3.57e-08 M
EC50 [8]: 0.121 nM

B22: A1A2-M01-622 (TCR, V domains shown)
Valpha: B1 Valpha with S51A, N52F, M53E, D54S
Vbeta: B1 Vbeta with Q29E, S50T, N51D, E52Y, E102G, H103P, L104W, I105E
EC50 of Dextramer staining [3]: 0.0911 nM
Kd [4]: 0.028 nM
EC50 of peptide [5]: 17.6 nM
Kd [6]: ~0.028 nM
EC50 Value (M), JKR9 reporter activation by peptide-loaded T2 cells [7]: 1.76e-08 M
EC50 [8]: 0.0911 nM

B23: A1A2-M01-623 (TCR, V domains shown)
Valpha: B1 Valpha with S29Q, S51I, N52F, M53Q, D54A
Vbeta: B1 Vbeta with Q29E, S50T, N51D, E52Y, E102G, H103P, L104W, I105E
EC50 of Dextramer staining [3]: 0.187 nM
Kd [4]: 0.337 nM
EC50 of peptide [5]: 30.6 nM
Kd [6]: ~0.337 nM
EC50 Value (M), JKR9 reporter activation by peptide-loaded T2 cells [7]: 3.06e-08 M
EC50 [8]: 0.187 nM

B24: A1A2-M01-624 (TCR, V domains shown)
Valpha: B1 Valpha with T25Q, D26Y, S27G, S28M, N52F
Vbeta: B1 Vbeta with Q29E, S50T, N51D, E52Y, E102G, H103P, L104W, I105E
EC50 of Dextramer staining [3]: 0.116 nM
Kd [4]: 0.0651 nM
EC50 of peptide [5]: 25.9 nM
Kd [6]: ~0.0651 nM
EC50 Value (M), JKR9 reporter activation by peptide-loaded T2 cells [7]: 2.59e-08 M
EC50 [8]: 0.116 nM

B25: A1A2-M01-625 (TCR, V domains shown)
Valpha: B1 Valpha with S29M, S51A, N52F, M53E, D54S
Vbeta: B1 Vbeta with Q29E, S50T, N51D, E52Y, E102G, H103P, L104W, I105E
EC50 of Dextramer staining [3]: 0.0852 nM
Kd [4]: 0.0222 nM
EC50 of peptide [5]: 35.1 nM
Kd [6]: ~0.0222 nM
EC50 Value (M), JKR9 reporter activation by peptide-loaded T2 cells [7]: 3.52e-08 M
EC50 [8]: 0.0852 nM

B26: A1A2-M01-626 (TCR, V domains shown)
Valpha: B1 Valpha with T25P, S27M, S28F, S51A, N52F, D54Q
Vbeta: GAVVSQHPSWVICKSGTSVKIECRSLDFPIERMFWYRQFPKQSLMLMATTDYGSKATYEQGVEKDKFLINHASLTLSTLTVTSAHPEDSSFYICSAREPGQGPFEQYFGPGTRLTVT
EC50 of peptide [5]: 22.6 nM
EC50 Value (M), JKR9 reporter activation by peptide-loaded T2 cells [7]: 2.26e-08 M
